These results are taken from article PMC8092395, “Development of Stable Chimeric IL-15 for Trans-Presentation by the Antigen Presenting Cells” (Frontiers in Immunology, 2021).

The stoichiometry N is the number of molecules, sites or subunits per partner or assembly.

The target in series [1] is human chimeric IL-15 (huIL-15 + huIgHG2 chimera; IL-2SP-N72DIL-15CDS-K322AIgHg2) (human). Briefly: SEC; analytical size-exclusion HPLC, Zorbax Bio Series GF-250 column, PBS mobile phase, 1 ml/min; 20 µl of 1 μg/ml chimeric IL-15; OVA and BSA as standards.
Series [2] shares this target. Briefly: non-reducing SDS-PAGE; purified chimeric IL-15 loaded on SDS-PAGE under non-reducing or reducing conditions, Coomassie stain, densitometry of dimer vs. monomer.
Series [3] concerns the molecule itself. Described as above.

On to “human chimeric IL-15 (huIL-15 + huIgHG2 chimera; IL-2SP-N72DIL-15CDS-K322AIgHg2) (Fc fusion)”, for which the stoichiometry N in series [1] and in series [2] was 2 in each case.

B1: mouse chimeric IL-15 (mIL-15 + mIgHG2a chimera) (Fc fusion)
chain: GIHVFILGCVSVGLPKTEANWIDVRYDLEKIESLIQSIHIDTTLYTDSDFHPSCKVTAMNCFLLELQVILHEYSNMTLNETVRNVLYLANSTLSSNKNVAESGCKECEELEEKTFTEFLQSFIRIVQMFINTSGSAKTTAPSVYPLAPVCGDTTGSSVTLGCLVKGYFPEPVTLTWNSGSLSSGVHTFPAVLQSDLYTLSSSVTVTSSTWPSQSITCNVAHPASSTKVDKKIEPRGPTIKPCPPCKCPAPNLLGGPSVFIFPPKIKDVLMISLSPIVTCVVVDVSEDDPDVQISWFVNNVEVHTAQTQTHREDYNSTLRVVSALPIQHQDWMSGKEFKCKVNNKDLPAPIERTISKPKGSVRAPQVYVLPPPEEEMTKKQVTLTCMVTDFMPEDIYVEWTNNGKTELNYKNTEPVLDSDGSYFMYSKLRVEKKNWVERNSYSCSVVHEGLHNHHTTKSFSRTPGK
As to B1, in series [3], the “stoichiometry N” value was 2.
